In assay [1] the target is Recombinant flavin reductase (rFlaR), HAT-tagged (Streptococcus pneumoniae (strain WU2)). The assay can be described thus: SDS-PAGE with or without β-mercaptoethanol + MALDI-TOF of the bands; HAT-tagged rFlaR purified on Ni-NTA under denaturing conditions; reducing gel: major band 22 kDa, minor 45 kDa; non-reducing gel: 45 kDa major, 22 kDa minor; both bands identified by in-gel digestion and MALDI-TOF and detected by rabbit anti-rFlaR antiserum.

The target in assay [2] is Flavin reductase (FlaR), endogenous in S. pneumoniae WU2 (Streptococcus pneumoniae (endogenous in strain WU2)). The assay can be described thus: SDS-PAGE and immunoblot of cell fractions; cytoplasmic and cell-wall fractions of WU2 WT, immunoblotted with rabbit anti-rFlaR antiserum; bands at ~17 kDa and 34 kDa in the cytoplasm, 34 kDa band also in the cell-wall fraction.

For orientation: stoichiometry N means a count of units in the complex or per binding partner. With “Recombinant flavin reductase (rFlaR), HAT-tagged (from UniProt A0ACD7PR00 1-174) (enzyme)”, in assay [1], the stoichiometry N is 2.
“Flavin reductase (FlaR), endogenous in S. pneumoniae WU2 (from UniProt A0ACD7PR00 1-174) (enzyme)” yielded a stoichiometry N in assay [2] of 2.

(Values after paper PMC5762878.)
